Experimental data: article PMC2700083, “A covalent peptide inhibitor of RGS4 identified in a focused one-bead, one compound library screen” (BMC Pharmacology, 2009)
Read-outs that look alike come from different tables or passages of the source. Bridges are numbered along the chain shown (N, C = ends).

Tests used:
Assay in all cases: FCPIA (flow cytometry protein interaction assay, Luminex beads); dose curves of 5nd on RGS4 cysteine mutants (5 nM, or 20 nM for the mutants with no Cys in the domain or the C-terminus) and labeled Gαo; curves constrained to 100% and 0%
[1] = target: MBP-RGS4Δ51N with no Cys in the C-terminus (UniProt P49799)
[2] = target: MBP-RGS4Δ51N with no Cys in the RGS domain (UniProt P49799)
[3] = target: MBP-RGS4Δ51N A71C in the -7C (UniProt P49799)
[4] = target: MBP-RGS4Δ51N A148C in the -7C (UniProt P49799)
[5] = target: MBP-RGS4Δ51N A95C in the -7C (UniProt P49799)
[6] = target: MBP-RGS4Δ51N -7C mutant (all 7 cysteines removed) (UniProt P49799)
[7] = target: MBP-RGS4Δ51N A132C in the -7C (UniProt P49799)
[8] = target: MBP-RGS4Δ51N with no Cys in the C-terminus (UniProt P49799); remark: listed apart in the source

B1: Peptide 5nd (Tyr-Trp-c[Cys-Lys-Gly-Leu-Cys]-Lys-NH2, S-S) (peptide)
peptide: H-YWCKGLCK-NH2
modifications: disulfide 3-7
SMILES: CC(C)C[C@@H]1NC(=O)CNC(=O)[C@H](CCCCN)NC(=O)[C@@H](NC(=O)[C@H](Cc2c[nH]c3ccccc23)NC(=O)[C@@H](N)Cc2ccc(O)cc2)CSSC[C@@H](C(=O)N[C@@H](CCCCN)C(N)=O)NC1=O
logIC50 [1]: -4.39 log M
logIC50 [2]: -3.8 log M
logIC50 [3]: -3.2 log M
logIC50 [4]: -3.51 log M
logIC50 [5]: -3.58 log M
logIC50 [6]: -3.24 log M
logIC50 [7]: -3.41 log M
logIC50 [8]: -4.5 log M
